From the nanobody polyreactivity screen of Harvey et al. (2022)

Test: yeast display, Sf9 membrane polyspecificity reagent, FACS + sequencing; frameworks hold sequencing errors
Summary of the method: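 Polyreactivity labels are assigned by the sorting gate from which each nanobody was recovered. The gates were low and high (top ~1%), set on anti-HA fluorescence for expression and streptavidin fluorescence for reagent binding. Before sorting, galactose-induced (36–48 hours) yeast display cells were stained for 1 hour at 4 °C with 10% biotinylated, detergent-solubilized Sf9 membrane reagent.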

Row | Sequence | polyreactivity (PSR sort gate)
1 | QVQLVESGGGLVQAGGSLRLSCAASGITFYRYAMGWYRQAPGKERELVAAISASDGSTYYADSVKGRFTISRDHAKNTVYLQMNSLKPEDTAVYYCNARKGYSYGHWGQGTQVTVSS | high polyreactivity
2 | QVQLVESGGGLVQAGGSLRLSCAASGFTFYRYAMGWYRPAPGKERELVAAISKSGGTTFYADSVKGRFTISRDNAKNTVYLQMNSLKPEDTEVYYCAVDVPYVQSYIPDPPNVYYWGQGTQVTVSS | high polyreactivity
3 | QVQLVESGGGLVQAGGSLRLSCAASGRIYGDYAMGWYRQAPGKERELVARITWSGTGTYYADSVKGRFTISRDNAKNTVYLQMNSLKPEDTAVYYCNADWQVKWYYYWGQVTQVTVSS | low polyreactivity
4 | QVQLVESGGGLVQAGGSLRLSCAASGRPFVGNVMGWYRQAPGKERELVDAITRTAGSTYYADSVKGRFTISRDNAKNTVYLEMNSLKPEDTAVDYCAVEGIYRWYDYSWYYTSTYDYWGQGTQVTVSS | low polyreactivity
5 | QVQLEESGGGLVQAGGSLRLSCAAYGSIFRFYAMGRYRQAPGKERQFVASITGTGGSTYYADSVKGRFTISRDNAKNTVYLQMNSLKPEDTAVYYCAKTQYSFPRLGYDYWGQGTQVTVSS | high polyreactivity
6 | QVQLVESGGGLVQAGGSLRLSCAASGSILDLNAMGWYRQAPGKERELVAAISYSGDSTYYADSVKGRFTISRDNAKNTVYLQMNSLKPEDTAVYYCNAASFSDQGTLNHFYDWGQGTQVTVSS | low polyreactivity
7 | QVQLVESGGGLVQAGGSLRLSCAASGSTFYHYAMGWYRQAPGKERELVAAISWSGGSTYYADSVKGRFTISRDNAKNTVYLQMNSLKPEDTAVYYCNKAGRSWFRTGLGYWGKGTQVTVSS | high polyreactivity
8 | PVQLVESGGGLVQAGGSLRLSCAASGSIFGVNDMGWYIQGAGKERELVAGINQGGGSTYYADSVKGRFTISRDIAKNTVYLQMNSLKPEDTAVYYCAAVRYVLRSPARYGYWGQGTQVTVSS | low polyreactivity
9 | QVQLVESGGGLVQAGGSLRLSCAASGSIFTGYAMGWYRQAPGKERELVAGISWGGTSTYYADSVKGRFTISRDNAKYTVYLQMNSLKPEDTAVYYCSAVRGKYGYLTTPDWFDYWGQGTQVTVSS | high polyreactivity
10 | QVQLVVSGGGLVQGGGSLRLSWAASGFILALNAMGWYIQAPGKEREFVADISWSGDSTYYADSVKGRFTISRDNAKNTFYLQMNSLKPEDTAVYYCAADPYYNWGYYYWGQGTQVTVSS | low polyreactivity
11 | QVQLVESGGGLVQAGGSLRLSCAASGLTFQNNAMGRSRQAPGKERELVAVITRIGGSTYYADSVKGRFTISRDNAKNTVYLQLNSLKPEDTAVYYCAVRRRYTPGYDYWGQGTQVTVSS | high polyreactivity
12 | QVQLVESGGGLVQAGGSLRLSCAASGFIFVFNAMGWYRQAPGKERELVAAITWSAGSTYYADSVKGRFTISRDTAKKTVDLQKNSLKPEDTAVYYCAADNWPWPEKPDKSILYDYWGQGTQVTVSS | low polyreactivity
13 | QVQIVESGGGLVQAGGSLRLSCAASGSIFLRNAMGWYRQAPGKERELVASITWNGASTSYADSVKGRFTISRDNAKNTVYLQMNSLKPEDTAVYYCAAVTVQDSNLNYGYWGQGTQVTVSS | low polyreactivity
14 | QVQLVESGGRLVQAGGSLRLSCAASGFIFKLYGMGWYRQAPGKESEMVAAINTSGGRTYYADSVKGRFTISLDNAKNTVYLQMNSLKPEDTAVYYCNTYYSFYGGGYDHWVQGTQVTVSS | high polyreactivity
15 | QVQLVESGGGLVQAGASLSLSCAASGYIFARYAMGLYIQSPGKERELVAAIRGDGGSTYYADSVKGRFTISRDNAKNTVYLQMNSLKPVDTAVYYCSTEIPWVSYYWTYYFWGQCTQVTVSS | high polyreactivity
16 | QVQLVESGGGLVQAGGSLRLSCAASGSTFGGNAKGWYRQAPGKERELGAAISSSGGSTYYADSVKGRFTLSRDNAKNTVYLQMNSLKPEDTAVYYCAALYHWTYDYWGQGTQVTVSS | low polyreactivity
17 | QVQLVESGGGLVQAVGSLRLSCAASGRIFNYYAMGWYRQAPGKEREMVAGISGYGTSTYYADSVKGRFTISRDNAKNTVYLQMNSLKPEDTAVYYCAADVFRDDVWLDYWGHGTQVTVSS | low polyreactivity
18 | QVQLVESGGGLVQAGGSLLLSCAASRSTFDTNAMGWYSQAPGKERELVAAIRWSTGNTYYADSVKGRFTISRDNAKKTDYLQKNSLKPEDTAVYYCAAYTGKHYKEGYWGQVTQVTVSS | low polyreactivity
19 | QVQLVESGGGLVQAGGRLRLSCAASGSTFSDYAMGWYRQAPGKERELVADISRSGASTYYADSVKGRFTISRYNAKNTVYLQMNSLKPEDTPVYSSNKAYSGVRYDSWGPGTQVTVSS | low polyreactivity
20 | QVQLVESGGGLVQAGGTLRLSCAPYGIILYRIGMGWYRQAPGKERELVAAISWSTGSTYYADSEKGRFTISRDNAKNTVYLQMNSLKPEDTAVYYCATDYGGYSFGMYYWGQGTQVTVSS | low polyreactivity
21 | QVQLVESGGGLVQAGGSLRLSCAASGRIFSRYAMGWYRQAPGKERELVAAINKSGGSTYYADSVKGRFTISRDNAKNTVYLQMNSLKPEDTAVYYCATDDPVYDYDYWGQGTQVTVSS | high polyreactivity

Row | Sequence | polyreactivity (PSR sort gate)
22 | QVQLVESGGGLVQAGGSLRLSCAASGSIFKYYAMGWYRQAPGKERELVAAISSTGGSTYYAHSLKGRFTISRDNANYTVYLQMNSLKTEDTAVYYCNTTYIWKNYDYWGQGTQVTVSS | high polyreactivity
23 | QVQLVESGGGLVQAGGSLRLSCAASGSIFQSYAMGWYRQAPGKERELVAAIDRSGTSTYYADSVKGRFTISRDNAKNTVYLQMNSLKPEDTAVYYCNTLRRSWQMDYWGQGTQVTVSS | low polyreactivity
24 | QVQLVESGGGLVQAGGSLRLSCAASGFTFKGNAMGWYRQAPGKERELVAGISRSGRTYYADSVKGRFTISRDNAKNTVYLQMNSLKPEDTAVYYCNARNQGWASLPTMGYWGQGTQVTVSS | high polyreactivity
25 | QVQLVESGGGLVQAGGSLRLSCAASGRTFYSYAMGWYRQAPGKERELVAAISWNGGSTYYADSVKGRFTISRDNAKNTVYLQMNSLKPEDTAVYYCAAVPLRNRWPNSWPALDYWGQGTQVTVSS | high polyreactivity
26 | QVQLVESGGGLVQAGGSLRLSCAASGRIFQFYAMGWYRQAPGKERELVAAITTGGSTKYADSVKGRFTISRDNAKNTVYLQMNSLKPEDTAVYYCAARAHYYVYRPGIRRYDYWGQGTQVTVSS | high polyreactivity
27 | QVQLVESGGGLVQAGGSLRLICAASGSTFVEYAMGWYRQAPGKERELVATISYRGTRTYYADSVKGRFTISRDNAKNTVYLQMNSLKPEDTAVYYCAARSWFRTVEYDYWGKGTQVTVSS | high polyreactivity
28 | QVQLVESGGGLVQAGGSLRLSCAASGSTFHRNAMGWYRQAPGKERELVAAISFSGGRTYYADSVKGRFTISRDNAKNTVYLQMNSLKPEDTAVYYCAAVTASPGSYPDDYWGQGTQVTVSS | low polyreactivity
29 | QVQLVESGGGLVQAGGRLRLSCAASGSTLSGNAMGGYRQAPGKERELVAAITSSGGRTYYADSVKGRFTISRDNAKNTVYLQMNSLKPEDTAVYYCAKDRYGWGQGTQVTVSS | high polyreactivity
30 | QVQLVESGGGLVQAGGSLRLICAASGRILRYYAMGWYRQAPGKERELVASISRGGSTYYADSVKGRFTISRDNAKNTFYLQMNSLKPEDTAVYYCAKSVTGWRGLWYTPRNYYWGQGTQVTVSS | high polyreactivity
31 | QVQLVESGGGLVQAGGSLRLSCAASGTISVFYAKGWYRQAPGKEREFVAAISWRGGRTYYADSVKARFTISRDNAKNTVYLQMNSLKPEDTAVYYCAKDIVRGRSSRYDYWGQGTQVTVSS | high polyreactivity
32 | QVQLVESGGGLVQAGGSLRLSCAASGSTFSVYAMGWYRQAPGKERELVATIRGRGGSTSYADSVKGRFTISRDNAKNTVYLQMNSLKPEDTAVYYCAARVVRDWASKRIILALSNYDYWGQGTQVTVSS | high polyreactivity
33 | QVQLVESGGGLVQAGGSLRVSCAASGRTFRYYAMGWYRQAPGKERELVASISDGGSTNYADSVKGRFTISRDNAKNTVYLQMNSQKPEDTAVYYCNAKAYVWYLYDEFGYWGQGTQVTVSS | low polyreactivity
34 | QVQLVESGGGLVQAGGSLRLSCAASGNAMGWYRPAPGKERELVAAITRRGGSTYYADSVKGRFTISRDNAKNTVYLQMNSLKPEDSAVYYCAADNPSYNLWYGYWGLGTQVTVSS | low polyreactivity
35 | QVQLVESGGGLVQAGGSLRLSCAASGSIFQNYAMGWYRQAPGKERELVAAISWSGDTYYADSVKGRFTISRDNAKNTVYLQMNSLKPEDTAVYYCAATYPYSLYYPYYGGDYDYWGQGTQVTVSS | low polyreactivity
36 | QVQLVESGGGLVQAGGSLRLTCAASGRTFKGYAMGWYRQEPGKERELVAAISYRGGSTYYADSVKGRFTISRDNAKNTVYLQMNSLKPEDTAVYYCAAQGRSKYRGYYYWGQGTQVTVSS | high polyreactivity
37 | QVQLVESGGGLVQAGGSLRLSCAASGSIFSYNAMGWNRQAPGKESELVAAISWSGGRTYYADSVKGRFTISRDNAKNTVYLQMNSLKPEDTAVYYCNAQYRLYSEFNYWGQGTQVTVSS | high polyreactivity
38 | QVHLVASGGGLVQAGGSLRLSCAASGRSFYEYAMGRYRQEPGKERELVAGITSGGSTNYADSVKGRFTISRDNAKNTVYLQMTSLKPEDTAVYYCADSYWGYEYDYWGQGTQVTVSS | low polyreactivity
39 | QVQLVESGGGLVQAGGSLRLSCAASGSIFNPYAMGWSRQAPGKEWELVAAISYDTTSTYYADSVKGRFTISRDNAKNTDYLQMNSLKPEDTAVYYCAARDQYGPGYRSESLDSWGQGTQETVSS | low polyreactivity
40 | QDQLVESGGGLVQAGGSLRLSCAASGRNFPGYVMGWYRQAPGKERELVAVITSNGGITYYADSVKGRFTISRDNAKNTVYLQMNSLKPEDTAVYYCAAYEIYYEFDSWGQGTLVTVSS | low polyreactivity
41 | QVQLVESGGGLVQAGGSLRLSCAASGSIFTKNSMGWYRQAPGKERELVAAISSGGSTYYADSVKGRFTISRDNAKNTVYLQMNSLKPEDTAVYYCARGASFFQKFYYWGQGTQVTVSS | high polyreactivity
